The target in data set [1] is DAOCS (Streptomyces clavuligerus, UniProt P18548). The settings on record: compared with conversion of penicillin N to DAOC; cited from earlier work.
The next data set concerns E. coli X580 cells. The data set is described as follows: Hole-plate bioassay containing penicillinase, on enzyme reaction products. The data set is classed as cell-based. The settings on record: products of the reaction with penicillin G; hole-plate assay with penicillinase. As to the method: (§1) Almost all the mutants expressed well, except R88I, R88Q and R87Q/R287Q whereby the expression level was only about half of others. Generally the expression level of colonies was about 10˜20% of soluble protein at 27° C. Moreover, recombinant enzyme of P168V mutant was insoluble. These mutant enzymes were purified to ˜60-70% purity with Resouce-Q column (Phamacia). The activity of each mutant with respect to penicillin N and its side-chain analogues was analysed by bioassay. […] Screening of the substrate conversion of penicillins mutants was also performed using a assay with radiolabelled α-ketoglutarate. The reaction conditions were the same as for bioassay except that [^14C]-α-ketoglutarate was used.

The subject of data set [2] is DAOCS. The data set is described as follows: Specific activity of DAOCS mutants by turnover of α-[14C]-ketoglutarate with penicillin substrates. The data set is classed as biochemical. As to the method:
as §1

Data set [3] in a line: Expression of recombinant DAOCS mutants, solubility of the enzyme. The settings on record: expressed at 27° C.
From the text: A U.S.E mutagenesis kit (Phamacia) was used for all the mutagenesis reactions and a Pst I restriction site on the pET vector was selected. Selection of single and double mutants were successfully performed from colonies by restriction enzyme digestion. (Sambrook et al, Molecular Cloning, A Laboratory Manual, Cold Spring Harbour, USA, 1989). […] Mutations of DAOCS (Table 1) were confirmed by sequencing according to the dideoxy method of Sanger. Mutants were designed after study of the IPNS-Mn^2+ and the IPNS-Fe(II)-ACV structures. Polar residues with which the side chain D-α-aminoadipoyl (carboxylate and amino groups) might bind to were identified.
as §1

B1: Wild type: unmodified deacetoxycephalosporin C synthase (DAOCS, expandase) (protein, UniProt P18548 1-311, looked up)
Deacetoxycephalosporin C …: MDTTVPTFSLAELQQGLHQDEFRRCLRDKGLFYLTDCGLTDTELKSAKDLVIDFFEHGSEAEKRAVTSPVPTMRRGFTGLESESTAQITNTGSYSDYSMCYSMGTADNLFPSGDFERIWTQYFDRQYTASRAVAREVLRATGTEPDGGVEAFLDCEPLLRFRYFPQVPEHRSAEEQPLRMAPHYDLSMVTLIQQTPCANGFVSLQAEVGGAFTDLPYRPDAVLVFCGAIATLVTGGQVKAPRHHVAAPRRDQIAGSSRTSSVFFLRPNADFTFSVPLARECGFDVSLDGETATFQDWIGGNYVNIRRTSKA
As for B1, the “Efficiency of conversion of penicillin G to phenylacetylcephalosporin C” value with DAOCS [1] is “much less efficient”. For the same molecule, the “Inhibition of growth of E. coli X580 cells” value in the data set with E. coli X580 cells is “showed the same inhibition”. In addition, the Specific activity in the data set on DAOCS [2] (substrate 6-Aminopenicillanic acid (6-APA)) amounted to 1.0 ± 0.2 nmol/min/mg; in the data set on DAOCS [2] (substrate Adipyl-6-APA), 2.7 nmol/min/mg; with DAOCS [2] (substrate Ammoxicillin) it was 1.4 ± 0.6 nmol/min/mg; with DAOCS [2] (substrate Ampicillin), 0 nmol/min/mg; with DAOCS [2] (substrate Carbenicillin) it was 0 nmol/min/mg; in the data set with DAOCS [2] (substrate Cloxacillin), 1.6 ± 0.6 nmol/min/mg. Moreover, the Specific activity is reported as 0 nmol/min/mg in the data set with DAOCS [2] (substrate Methicillin); 5.1 ± 0.4 nmol/min/mg in the data set on DAOCS [2] (substrate Penicillin G); 6.4 nmol/min/mg with DAOCS [2] (substrate Penicillin N, uncoupled decarboxylation subtracted); 5.3 ± 0.3 nmol/min/mg with DAOCS [2] (substrate Penicillin V); 0 nmol/min/mg in the data set on DAOCS [2] (substrate oxacillin); 0 nmol/min/mg in the data set with DAOCS [2] (substrate piperacillin). Also, the “Oxacillin accepted as substrate (in words)” value in the data set with DAOCS [2] (substrate oxacillin) is listed as “neither oxacillin nor piperacillin are substrates”. The “Piperacillin accepted as substrate (in words)” value with DAOCS [2] (substrate piperacillin) was “neither oxacillin nor piperacillin are substrates”.

B2: P168V: DAOCS mutant whose recombinant enzyme was insoluble (protein, UniProt P18548 1-311, looked up, variant P168V)
Deacetoxycephalosporin C …: MDTTVPTFSLAELQQGLHQDEFRRCLRDKGLFYLTDCGLTDTELKSAKDLVIDFFEHGSEAEKRAVTSPVPTMRRGFTGLESESTAQITNTGSYSDYSMCYSMGTADNLFPSGDFERIWTQYFDRQYTASRAVAREVLRATGTEPDGGVEAFLDCEPLLRFRYFPQVVEHRSAEEQPLRMAPHYDLSMVTLIQQTPCANGFVSLQAEVGGAFTDLPYRPDAVLVFCGAIATLVTGGQVKAPRHHVAAPRRDQIAGSSRTSSVFFLRPNADFTFSVPLARECGFDVSLDGETATFQDWIGGNYVNIRRTSKA
Consider B2, for which the “Solubility of recombinant enzyme” value in data set [3] is reported as “insoluble”.
